In this assay the target is SARS-COV-2 Wuhan WT Spike_del18 on VSV-delG pseudotyped particles (SARS-COV-2) (UniProt P0DTC2). Nature of the assay: cell-based or functional assay.

On to “pX-B001_GS-VHH72-h1-E1D-S56A_(G4S)6_VHH72-h1-E1D-S56A_His8”, for which the IC50 ug/ml, pseudoneutralization assay was found to be 0.169 µg/mL. With “pX-B002_GS-VHH72-h1-E1D-S56A_(G4S)_VHH72-h1-E1D-S56A_His8” the figure was 0.108 µg/mL; with “pX-B003_GS-VHH72-h1-E1D-S56A_(G4S)4_VHH72-h1-E1D-S56A_His8”, 0.361 µg/mL.

The record behind these values is US20240228596A1.
